Reference: the supplement of paper PMC10126150
± gives the standard deviation of the averaged measurements.

System: ATP
Experiment: switch fluorescence ratio, 500 uM ATP over buffer (Cy3 cluster intensity, sum of 5 cycles each) (fold (ratio)); higher = stronger signal-on switching upon ATP binding; sequences stand for … in TCGTCGGCAGCGTCAGATGTGTATAAGAGACAGTTTTTTTTTTTTTTTTTTTTTTTTT…TC
Settings: aptamer strand: ATP DNA aptamer (quencher-CACCTGGGGGAGTATTGCGGAGGAAGG + anchor), 100 nM annealed; ATP concentration: 500 uM
In short: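 Five buffer/ATP imaging cycles were run on Cy3-labelled switching-strand clusters on a modified Illumina MiSeq flow-cell, with NaOH stripping and re-annealing between cycles. In each cycle, clusters annealed to 100 nM quencher-labelled ATP aptamer were imaged in selection buffer, then after 15 min with 500 uM ATP at 22 °C. Per cluster, the fluorescence ratio is summed target-cycle over summed buffer-cycle Cy3 intensity, averaged per switch-domain sequence. Only clusters within 100-1000 RFU were kept.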
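Further: ATP exposure 15 min at 22 °C before imaging.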

| Sequence | switch fluorescence ratio |
| --- | --- |
| GTCAGCGGTG | 0.9993 ± 0.009 |
| GGGGGGGTT | 1 ± 0.025 |
| AGGGGGTTTT | 1 ± 0.036 |
| AAGGGTGTAA | 1.01 ± 0.069 |
| ATCGGAGGTC | 0.978 ± 0.037 |
| ATCCGAGATG | 1.034 ± 0.0074 |
| TTTCGGGCCA | 1.12 ± 0.039 |
| TATCGGATAA | 0.9947 ± 0.0037 |
| AACCTGCGGA | 1.02 ± 0.011 |
| GGTAGGAAAA | 0.972 ± 0.076 |
| ACGGTCGGA | 0.9979 ± 0.0048 |
| ACGGGGTCT | 1.02 ± 0.012 |
| TCAGAGGTAT | 1.02 ± 0.014 |
| GAAGAGGGGA | 1.01 ± 0.013 |
| TTATTGGGAC | 0.972 ± 0.02 |
| GCTGGTAATG | 1.01 ± 0.021 |
| AAAATTTTGC | 1.12 ± 0.2 |
| AGGATGGGGT | 0.966 ± 0.017 |
| ACAACGAGGT | 1.015 ± 0.0093 |
| TGTTTTGACG | 1.07 ± 0.085 |
| TAATGGAGGC | 1.05 ± 0.13 |
| GGGAGTTGCT | 0.986 ± 0.039 |
| GCGTTGGTCG | 0.929 ± 0.0014 |
| TGGTGGCCTT | 1.03 ± 0.032 |
| TAACTGTCTT | 0.966 ± 0.013 |
| AGTGAAAGTT | 1 ± 0.012 |

| Sequence | switch fluorescence ratio |
| --- | --- |
| TTTGTTTTTT | 0.994 ± 0.03 |
| CGTTTTTAAG | 0.982 ± 0.0052 |
| AAGTTTTTTC | 1.012 ± 0.0053 |
| ATGGTAAGGG | 0.991 ± 0.026 |
| TGCTGGAGGG | 0.955 ± 0.011 |
| CGTCCCTAGC | 1.61 ± 0.06 |
| CCAGGGGCGC | 1.04 ± 0.017 |
| GCTTATCTAA | 0.997 ± 0.016 |
| AGTGTGACAG | 0.987 ± 0.018 |
| GAAGGTAGGT | 0.98 ± 0.024 |
| GGCATGAGAC | 1.06 ± 0.047 |
| ACGGTTTAAC | 1.105 ± 0.005 |
| CTTGGTTACG | 0.9738 ± 0.0093 |
| TGAGGCCCCG | 0.991 ± 0.025 |
| ACGACGAAAC | 3.35 ± 1 |
| CTCGTATCAG | 1.01 ± 0.021 |
| CTAAGTTGGG | 1.1 ± 0.13 |
| CGGCTAACAA | 1.02 ± 0.013 |
| CAAGGCTACG | 1.06 ± 0.04 |
| AGGGTTTTAT | 1.003 ± 0.0048 |
| TTAATGGGAT | 0.987 ± 0.021 |
| TGATAGCGGA | 1.03 ± 0.035 |
| TTAGATACCA | 1.03 ± 0.039 |
| CGGGTGTTCG | 1.02 ± 0.075 |
| TTTAAAATTC | 1.28 ± 0.49 |
| TGGGGCTGCC | 0.969 ± 0.039 |

| Sequence | switch fluorescence ratio |
| --- | --- |
| CTAGTGACTA | 0.987 ± 0.032 |
| AGGTGGGTG | 1.04 ± 0.1 |
| GAATTGGGCT | 0.9679 ± 0.0032 |
| TACAGAGGG | 0.966 ± 0.06 |
| CGTATAATTT | 0.97555 ± 0.00021 |
| GGTGAAGTGT | 1 ± 0.0051 |
| GGGAGTGTGG | 1.001 ± 0.0062 |
| TAGACAGTTT | 0.993 ± 0.023 |
| GGTTGAGGAG | 1.04 ± 0.074 |
| CAATCGTAAA | 1.01 ± 0.02 |
| GGGGGCAAGA | 0.999 ± 0.06 |
| GAACGCTGGA | 1.04 ± 0.056 |
| TACTCGGGAA | 3.05 ± 2 |
| TTTTCCTAAA | 1.06 ± 0.11 |
| ATGATCGGGT | 1.02 ± 0.031 |
| TTGTGTGATT | 1.02 ± 0.038 |
| TTATGGACTG | 1.01 ± 0.079 |
| TTGGAAAAAG | 1.1 ± 0.18 |
| ATGGGAGGGG | 1.01 ± 0.035 |
| CTGAGTTTAT | 0.997 ± 0.023 |
| TTGTATCCTG | 0.9637 ± 0.0011 |
| GCTAGGGGGG | 1 ± 0.04 |
| AGGGGTTATG | 1 ± 0.021 |
| AGTAGAAGAT | 0.9552 ± 0.0071 |
